Test results taken from patent US20250179180A1.

Molecular target: human CD3 (human) (UniProt P07766)
Sequence (P07766 23-207 limits assumed, chain 1 of 2): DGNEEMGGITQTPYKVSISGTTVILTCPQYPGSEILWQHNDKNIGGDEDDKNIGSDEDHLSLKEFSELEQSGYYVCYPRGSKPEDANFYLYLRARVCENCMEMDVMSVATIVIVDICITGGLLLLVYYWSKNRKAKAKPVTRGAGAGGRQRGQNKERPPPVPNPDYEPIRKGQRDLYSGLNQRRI
Sequence (chain, as listed by the source limits assumed, chain 2 of 2): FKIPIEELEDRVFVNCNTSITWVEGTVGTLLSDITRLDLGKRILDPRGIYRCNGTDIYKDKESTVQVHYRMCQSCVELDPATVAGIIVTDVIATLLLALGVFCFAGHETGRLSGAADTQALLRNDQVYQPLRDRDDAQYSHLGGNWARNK

TNB-384B (bispecific antibody)
Kd: 0.03 µM
